Earlier results as cited in publication PMC3268021.
Read-outs that look alike come from different tables or passages of the source. Values belong to the substance of their own block, whether it stands above or below them.

What was measured:
[1] = target: TXA2R (agonist-activated) (UniProt P21731)
TXA2R (ligand-free) = TXA2R (ligand-free) (UniProt P21731)
phospholipase C [2] = target: phospholipase C (UniProt P19174)
phospholipase C [3] = target: phospholipase C (UniProt P19174); remark: listed apart in the source
Calmodulin = Calmodulin (UniProt P0DP23)

Chain of UniProt P19174 (P19174 2-1290): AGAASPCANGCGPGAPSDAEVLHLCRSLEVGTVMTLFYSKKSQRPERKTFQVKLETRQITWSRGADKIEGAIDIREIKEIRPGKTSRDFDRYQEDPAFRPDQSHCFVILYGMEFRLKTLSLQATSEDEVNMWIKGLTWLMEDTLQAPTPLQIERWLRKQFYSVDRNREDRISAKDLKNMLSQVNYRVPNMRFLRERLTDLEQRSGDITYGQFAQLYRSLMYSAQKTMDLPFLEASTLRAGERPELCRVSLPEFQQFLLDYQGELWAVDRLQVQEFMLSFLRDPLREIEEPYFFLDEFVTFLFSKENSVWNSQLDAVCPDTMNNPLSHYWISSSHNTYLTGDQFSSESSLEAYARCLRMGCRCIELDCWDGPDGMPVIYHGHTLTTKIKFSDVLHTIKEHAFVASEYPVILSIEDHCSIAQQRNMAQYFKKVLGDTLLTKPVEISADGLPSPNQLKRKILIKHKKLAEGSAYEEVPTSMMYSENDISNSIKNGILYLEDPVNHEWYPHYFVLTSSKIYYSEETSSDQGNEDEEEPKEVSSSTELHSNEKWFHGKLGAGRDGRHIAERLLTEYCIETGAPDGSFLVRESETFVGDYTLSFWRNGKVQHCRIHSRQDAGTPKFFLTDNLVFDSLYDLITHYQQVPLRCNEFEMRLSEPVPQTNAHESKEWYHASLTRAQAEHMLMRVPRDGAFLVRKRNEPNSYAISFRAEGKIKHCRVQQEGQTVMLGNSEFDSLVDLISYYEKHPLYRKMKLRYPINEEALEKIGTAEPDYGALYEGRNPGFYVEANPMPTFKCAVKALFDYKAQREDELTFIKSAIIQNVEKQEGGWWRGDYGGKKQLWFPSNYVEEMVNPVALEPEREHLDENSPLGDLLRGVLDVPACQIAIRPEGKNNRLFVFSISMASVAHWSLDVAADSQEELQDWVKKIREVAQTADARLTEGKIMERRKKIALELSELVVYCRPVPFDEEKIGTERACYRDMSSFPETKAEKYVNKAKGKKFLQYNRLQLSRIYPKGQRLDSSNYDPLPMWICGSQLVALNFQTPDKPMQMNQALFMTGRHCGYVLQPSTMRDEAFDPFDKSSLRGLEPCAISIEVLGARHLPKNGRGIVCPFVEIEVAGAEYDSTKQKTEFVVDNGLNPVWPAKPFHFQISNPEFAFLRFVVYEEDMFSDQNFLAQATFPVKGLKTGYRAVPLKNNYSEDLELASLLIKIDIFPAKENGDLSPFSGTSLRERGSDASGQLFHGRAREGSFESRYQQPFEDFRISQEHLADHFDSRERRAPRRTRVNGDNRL

Kd [1]: 240 µM
Kd (TXA2R (ligand-free)): 17 µM
Substance: Gαq C-terminal peptide C-terminal 15-mer peptide (from UniProt P50148)

Ki (phospholipase C [2]): 120 µM
Ki (phospholipase C [3]): 3.5 µM
Substance: PCI-peptide 724-736 724-736 (from UniProt P19174)

Kd (Calmodulin): 0.002 µM
Substance: pAC28 peptide of AC1 495-522 (from UniProt P19754)
